B1: GpH7-A5/GpH7-B3 variant T335_02A/GpL16-k0 (antibody, human IgG1, kappa)
heavy 1: not shown
heavy 2: not shown
light: DIVMTQSPLSLPVTPGEPASISCQASESLVHSNRNTYLHWYLQKPGQSPQLLIYKVSNRFSGVPDRFSGSGSGTDFTLKISRVEAEDVGVYYCSQNTHVPPTFGQGTKVEIERTVAAPSVFIFPPSDEQLKSGTASVVCLLNNFYPREAKVQWKVDNALQSGNSQESVTEQDSKDSTYSLSSTLTLSKADYEKHKVYACEVTHQGLSSPVTKSFNRGEC
notes: copies: 1 + 1 + 2
B2: GpH7-A5/GpH7-B3 variant Y296_03V/GpL16-k0 (antibody, human IgG1, kappa)
heavy 1: not shown
heavy 2: not shown
light: B1 light
notes: copies: 1 + 1 + 2
B3: GpH7-A5/GpH7-B3 variant Y296_06M/GpL16-k0 (antibody, human IgG1, kappa)
heavy 1: not shown
heavy 2: not shown
light: B1 light
notes: copies: 1 + 1 + 2
B4: GpH7-A5/GpH7-B3 variant T335_04F/GpL16-k0 (antibody, human IgG1, kappa)
heavy 1: not shown
heavy 2: not shown
light: B1 light
notes: copies: 1 + 1 + 2
B5: GpH7-A5/GpH7-B3 variant T335_13S/GpL16-k0 (antibody, human IgG1, kappa)
heavy 1: not shown
heavy 2: not shown
light: B1 light
notes: copies: 1 + 1 + 2
B6: GpH7-A5/GpH7-B3 variant Y300_11K/GpL16-k0 (antibody, human IgG1, kappa)
heavy 1: not shown
heavy 2: not shown
light: B1 light
notes: copies: 1 + 1 + 2
B7: GpH7-A5/GpH7-B3 variant Y300_04F/GpL16-k0 (antibody, human IgG1, kappa)
heavy 1: not shown
heavy 2: not shown
light: B1 light
notes: copies: 1 + 1 + 2
B8: GpH7-A5/GpH7-B3 variant T335_07I/GpL16-k0 (antibody, human IgG1, kappa)
heavy 1: not shown
heavy 2: not shown
light: B1 light
notes: copies: 1 + 1 + 2
B9: GpH7-A5/GpH7-B3 variant T335_09D/GpL16-k0 (antibody, human IgG1, kappa)
heavy 1: not shown
heavy 2: not shown
light: B1 light
notes: copies: 1 + 1 + 2
B10: GpH7-A5/GpH7-B3 variant Y300_18N/GpL16-k0 (antibody, human IgG1, kappa)
heavy 1: not shown
heavy 2: not shown
light: B1 light
notes: copies: 1 + 1 + 2
B11: GpH7-A5/GpH7-B3 variant T335_03V/GpL16-k0 (antibody, human IgG1, kappa)
heavy 1: not shown
heavy 2: not shown
light: B1 light
notes: copies: 1 + 1 + 2
B12: GpH7-A5/GpH7-B3 variant Y300_13S/GpL16-k0 (antibody, human IgG1, kappa)
heavy 1: not shown
heavy 2: not shown
light: B1 light
notes: copies: 1 + 1 + 2
B13: GpH7-A5/GpH7-B3 variant Y300_07I/GpL16-k0 (antibody, human IgG1, kappa)
heavy 1: not shown
heavy 2: not shown
light: B1 light
notes: copies: 1 + 1 + 2
B14: GpH7-A5/GpH7-B3 variant Y296_01G/GpL16-k0 (antibody, human IgG1, kappa)
heavy 1: not shown
heavy 2: not shown
light: B1 light
notes: copies: 1 + 1 + 2
B15: GpH7-A5/GpH7-B3 variant Y296_11K/GpL16-k0 (antibody, human IgG1, kappa)
heavy 1: not shown
heavy 2: not shown
light: B1 light
notes: copies: 1 + 1 + 2
B16: GpH7-A5/GpH7-B3 variant Y296_19Q/GpL16-k0 (antibody, human IgG1, kappa)
heavy 1: not shown
heavy 2: not shown
light: B1 light
notes: copies: 1 + 1 + 2
B17: GpH7-A5/GpH7-B3 variant Y300_09D/GpL16-k0 (antibody, human IgG1, kappa)
heavy 1: not shown
heavy 2: not shown
light: B1 light
notes: copies: 1 + 1 + 2
B18: GpH7-A5/GpH7-B3 variant T335_11K/GpL16-k0 (antibody, human IgG1, kappa)
heavy 1: not shown
heavy 2: not shown
light: B1 light
notes: copies: 1 + 1 + 2
B19: GpH7-A5/GpH7-B3 variant Y296_12R/GpL16-k0 (antibody, human IgG1, kappa)
heavy 1: not shown
heavy 2: not shown
light: B1 light
notes: copies: 1 + 1 + 2
B20: GpH7-A5/GpH7-B3 variant Y296_10E/GpL16-k0 (antibody, human IgG1, kappa)
heavy 1: not shown
heavy 2: not shown
light: B1 light
notes: copies: 1 + 1 + 2
B21: GpH7-A5/GpH7-B3 variant T335_20W/GpL16-k0 (antibody, human IgG1, kappa)
heavy 1: not shown
heavy 2: not shown
light: B1 light
notes: copies: 1 + 1 + 2
B22: GpH7-A5/GpH7-B3 variant Y300_08L/GpL16-k0 (antibody, human IgG1, kappa)
heavy 1: not shown
heavy 2: not shown
light: B1 light
notes: copies: 1 + 1 + 2
B23: GpH7-A5/GpH7-B3 variant Y296_04F/GpL16-k0 (antibody, human IgG1, kappa)
heavy 1: not shown
heavy 2: not shown
light: B1 light
notes: copies: 1 + 1 + 2
B24: GpH7-A5/GpH7-B3 variant V266_08L/GpL16-k0 (antibody, human IgG1, kappa)
heavy 1: not shown
heavy 2: not shown
light: B1 light
notes: copies: 1 + 1 + 2
B25: GpH7-A5/GpH7-B3 variant Y300_01G/GpL16-k0 (antibody, human IgG1, kappa)
heavy 1: not shown
heavy 2: not shown
light: B1 light
notes: copies: 1 + 1 + 2
B26: GpH7-A5/GpH7-B3 variant T335_06M/GpL16-k0 (antibody, human IgG1, kappa)
heavy 1: not shown
heavy 2: not shown
light: B1 light
notes: copies: 1 + 1 + 2
B27: GpH7-A5/GpH7-B3 variant T335_19Q/GpL16-k0 (antibody, human IgG1, kappa)
heavy 1: not shown
heavy 2: not shown
light: B1 light
notes: copies: 1 + 1 + 2

For this assay, the target named is T1, FcγRIIIa (human, UniProt P08637 17-208).
T1 construct: extracellular domain; also called 3a; FcγRIIIa extracellular domain
T1 sequence (P08637 other isoform, or with tags, fused parts or gaps): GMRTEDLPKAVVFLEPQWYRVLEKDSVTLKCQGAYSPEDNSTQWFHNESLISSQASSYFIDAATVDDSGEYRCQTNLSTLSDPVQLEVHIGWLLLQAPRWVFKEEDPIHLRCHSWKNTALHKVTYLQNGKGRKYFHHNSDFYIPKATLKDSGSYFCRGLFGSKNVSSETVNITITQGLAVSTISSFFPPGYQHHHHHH
The assay is described as follows: SPR (Biacore).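 Further: antibody variants captured on an SPR sensor chip, with FcγRIIIa passed over as analyte in HBS-EP+ buffer at 25 °C.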
As to B1, the “He/Con 3a” value is 90.9 % of GpH7-A5/GpH7-B3/GpL16-k0.
Then B2, with 69.1 % of GpH7-A5/GpH7-B3/GpL16-k0.
Then B3, with 74.6 % of GpH7-A5/GpH7-B3/GpL16-k0.
Then B4, with 91.7 % of GpH7-A5/GpH7-B3/GpL16-k0.
On to B5, for which the “He/Con 3a” value is 100 % of GpH7-A5/GpH7-B3/GpL16-k0.
Regarding B6, the “He/Con 3a” value was 63.7 % of GpH7-A5/GpH7-B3/GpL16-k0.
In the case of B7, the “He/Con 3a” value was 100 % of GpH7-A5/GpH7-B3/GpL16-k0.
B8: the “He/Con 3a” value is 102 % of GpH7-A5/GpH7-B3/GpL16-k0.
Then B9, with 103 % of GpH7-A5/GpH7-B3/GpL16-k0.
For B10, the “He/Con 3a” value is 96 % of GpH7-A5/GpH7-B3/GpL16-k0.
Then B11, with 96.3 % of GpH7-A5/GpH7-B3/GpL16-k0; and B12, with 80.3 % of GpH7-A5/GpH7-B3/GpL16-k0.
Then B13, with 103 % of GpH7-A5/GpH7-B3/GpL16-k0; and B14, with 51.3 % of GpH7-A5/GpH7-B3/GpL16-k0.
Take B15: the “He/Con 3a” value was 53.3 % of GpH7-A5/GpH7-B3/GpL16-k0.
Then B16, with 71.4 % of GpH7-A5/GpH7-B3/GpL16-k0; and B17, with 104 % of GpH7-A5/GpH7-B3/GpL16-k0.
Then B18, with 91.7 % of GpH7-A5/GpH7-B3/GpL16-k0; and B19, with 66.5 % of GpH7-A5/GpH7-B3/GpL16-k0.
With B20, the “He/Con 3a” value was 76.8 % of GpH7-A5/GpH7-B3/GpL16-k0.
Then B21, with 97.3 % of GpH7-A5/GpH7-B3/GpL16-k0.
Consider B22, for which the “He/Con 3a” value was 114 % of GpH7-A5/GpH7-B3/GpL16-k0.
Then B23, with 79.5 % of GpH7-A5/GpH7-B3/GpL16-k0.
Then B24, with 117 % of GpH7-A5/GpH7-B3/GpL16-k0.
Then B25, with 88.6 % of GpH7-A5/GpH7-B3/GpL16-k0.
For B26, the “He/Con 3a” value is 97 % of GpH7-A5/GpH7-B3/GpL16-k0.
Then B27, with 97.7 % of GpH7-A5/GpH7-B3/GpL16-k0.

Source of the values: patent US20260167699A1 (Chugai, published 2026).
